Results on seven molecules are retold here after patent US20240343803A1 (SHANDONG SIMCERE BIOPHARMACEUTICAL, published 2024).

Assay [1] has as its target T1, human PVRIG-mFc protein (Acro, PVG-H5253) (human, UniProt Q6DKI7 41-171, limits assumed).
T1 construct: bought protein
T1 sequence (looked up): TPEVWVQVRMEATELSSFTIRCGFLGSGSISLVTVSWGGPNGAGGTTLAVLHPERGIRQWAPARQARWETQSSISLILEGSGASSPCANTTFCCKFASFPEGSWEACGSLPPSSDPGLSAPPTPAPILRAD
Put plainly: FACS competition, PVRIG-mFc binding to CHO-K1-CD112 cells, competitor CD112 on cells. On the procedure: A working solution of human PVRIG-mFc protein (Acro, PVG-H5253) prepared with staining buffer, 1 μg/mL (four-fold concentration), was added into a 96-well plate (50 μL PVRIG-mFc working solution per well). […] The diluted antibodies were added to the well containing 50 μL of PVRIG-mFc. The plate was placed on a microplate shaker at 400 rpm for 1 minute to fully mix the antibodies and PVRIG-mFc proteins, and then incubated at 4° C. for 30 minutes. After the incubation, the cell suspension prepared above (100 μL) was added into the wells, gently mixed with the pipette tip and incubated at 4° C. for 30 minutes. After the incubation, the cells were washed twice with staining buffer (200 μL per well) and centrifuged at 350×g for 5 minutes to discard the supernatant. The PE goat anti-mouse IgG Fc antibody (Biolegend, 405337) was diluted 250 times with staining buffer, added into the washed wells (100 μL per well), mixed well, and stained at 4° C. for 30 minutes. After staining, the cells were washed twice with staining buffer, finally resuspended with 200 μL staining buffer and analyzed by flow cytometry (BD, Canto II). The weaker the fluorescence signal, the stronger the ability of the antibodies blocks the binding of CHO-K1 human CD112 cells to the PVRIG-mFc protein. An antibody binding curve was drawn with concentration of antibodies as the abscissa and the corresponding Mean Fluorescence Intensity (MFI) as the ordinate. The IC50 value of the antibodies and the AUC value of the binding curve were calculated by using a Four Parameter Logistic Fit (GraphPadPrism9). The smaller the IC50 value and AUC value, the stronger the ability of the antibodies competes with CHO-K1-CD112 cells to bind to human PVRIG-mFc protein. […] […] The smaller the percentage value, the stronger the blocking ability of the antibodies.

Assay [2] concerns the target T2, Full-length cynomolgus monkey TIGIT on CHO-K1 cells (CHO-K1 cynomolgus monkey TIGIT) (cynomolgus monkey).
T2 construct: NCBI XP_015300911.1
Briefly: FACS; CHO-K1 cynomolgus monkey TIGIT. In a few lines:
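Binding to CHO-K1 cells expressing full-length human or cynomolgus monkey TIGIT, measured by flow cytometry. Cells at 2×10⁵/50 μL in 1% BSA-PBS were mixed 1:1 with antibodies serially diluted 3-fold over 12 points from 80 nM and held at 4° C for 60 min. EC50 came from the binding curves.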
(In general: In flow cytometry, cells or beads pass a laser one at a time.)

In assay [3] the target is T3, Full-length human TIGIT on CHO-K1 cells (CHO-K1 human TIGIT) (human, UniProt Q495A1 22-244).
T3 construct: NCBI XP_024309156.1; the entry includes the signal peptide (limits not recoverable); The strain (high, medium, low) is named under assay; also called high expression strain 1D2; medium expression strain 2D10
T3 sequence: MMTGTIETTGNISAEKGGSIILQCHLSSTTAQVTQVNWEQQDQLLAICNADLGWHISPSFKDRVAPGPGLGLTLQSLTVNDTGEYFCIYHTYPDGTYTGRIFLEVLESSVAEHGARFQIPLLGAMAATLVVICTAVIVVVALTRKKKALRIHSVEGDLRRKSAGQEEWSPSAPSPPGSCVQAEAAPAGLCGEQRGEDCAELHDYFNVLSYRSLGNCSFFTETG
Put plainly: FACS; blocking of Bio-CD155-His binding to CHO-K1 human TIGIT cells. Summed up:
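Flow cytometry blocking assay in CHO-K1 human TIGIT cells (2×10⁵/40 μL in 1% BSA-PBS). Cells were mixed with equal volumes of antibody (12-point 3-fold dilution from 210 nM) and biotinylated CD155-His (diluted to 3 μg/mL), then held at 4° C for 60 min. Bound ligand was detected with APC-streptavidin (1:1700, 4° C, 40 min) on a BD Canto II. IC50 came from the inhibition curves.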

Assay [4] addresses T4, Fusion protein of extracellular domain of human TIGIT and His-tag (human TIGIT ECD-his) (human).
T4 chain: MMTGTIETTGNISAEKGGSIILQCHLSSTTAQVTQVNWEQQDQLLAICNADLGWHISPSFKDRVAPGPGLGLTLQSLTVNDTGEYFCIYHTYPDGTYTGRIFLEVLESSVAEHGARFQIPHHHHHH
Put plainly: BIAcore. On the technique in general: Surface plasmon resonance follows binding to a sensor surface in real time, without labels.

Assay [5] deals with T5, Fusion protein of extracellular domain of human TIGIT and mouse IgG2a Fc fragment (human TIGIT ECD-mFc) (human).
T5 construct: The entry includes the signal peptide (limits not recoverable) and the mouse IgG2a Fc
T5 chain: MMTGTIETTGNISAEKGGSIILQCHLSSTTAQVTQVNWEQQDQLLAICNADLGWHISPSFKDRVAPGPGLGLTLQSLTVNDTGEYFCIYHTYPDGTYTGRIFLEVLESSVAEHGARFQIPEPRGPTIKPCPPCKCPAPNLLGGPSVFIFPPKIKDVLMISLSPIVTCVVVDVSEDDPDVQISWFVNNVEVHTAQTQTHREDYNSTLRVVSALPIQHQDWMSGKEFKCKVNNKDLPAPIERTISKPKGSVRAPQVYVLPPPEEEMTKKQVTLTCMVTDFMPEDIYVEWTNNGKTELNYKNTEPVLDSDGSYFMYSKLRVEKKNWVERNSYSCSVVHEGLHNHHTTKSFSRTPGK
Put plainly: ELISA, human TIGIT ECD-mFc. (ELISA stands for enzyme-linked immunosorbent assay.)

Changes are numbered by the printed parent chain.

T2 sequence (chain, as listed by the source limits assumed): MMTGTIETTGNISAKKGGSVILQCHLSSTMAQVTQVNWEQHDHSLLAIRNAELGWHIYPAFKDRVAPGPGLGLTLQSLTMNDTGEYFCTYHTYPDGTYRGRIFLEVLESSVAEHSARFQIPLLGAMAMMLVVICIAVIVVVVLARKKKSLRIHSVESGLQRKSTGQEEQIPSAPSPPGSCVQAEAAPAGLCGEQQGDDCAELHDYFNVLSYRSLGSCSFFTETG

B1: PVRIG-A118 (Fc fusion)
chain: QVQLVESGGGLVQAGGSLRLSCAASETYFDLYVMGWYRQAPGKDRELVATITYTGSIKIVDSVKDRFTISRGDAKNTVSLQMSSLKPEDTAVYFCNADPSGLGRKVYWGQGTQVTVSS
notes: heavy chain antibody VHH-hinge-CH2-CH3, human IgG1 constant part; not shown: human IgG1 hinge-CH2-CH3
As to B1, in assay [1], the “% AUC to COM701-hIgG4” value was found to be 110%, the “% AUC to SRF813-hIgG1” value turned out to be 75.6%, the “% IC50 to COM701-hIgG4” value is 111% and the “% IC50 to SRF813-hIgG1” value was 97.4%.

B2: TIGIT-002-H4L3 (antibody, V domains shown)
VH: EVQLQESGPGLVKPSETLSLTCAVSGYSITSDSWNWIRQPPGKKLEYIGYISYSGNTYYNPSLKSRVTISRDTSKNQFSLKLSSVTAADTAVYYCARLDFSNYGGAVDYWGQGTTVTVSS
VL: DIVMTQSPDSLAVSLGERATINCKASQNVRTAVAWYQQKPGQSPKLMIYSASYRYTGVPDRFSGSGSGTDFTLTISSLQAEDVAVYYCQQYYTTPWTFGGGTKVEIK
notes: Humanized anti-TIGIT antibody
For B2, the EC50 (in general, the concentration giving half of the maximal effect) in assay [2] stood at 0.723 nM. In addition, the IC50 (commonly the point on the concentration scale where inhibition reaches its midpoint) in assay [3] turned out to be 0.137 nM. Also, in assay [4], the Kd (usually the equilibrium constant for the complex coming apart) amounted to 0.0531 nM; the off-rate (koff) – broadly, a measure of how fast the partners let go of each other – was 0.0003 s⁻¹; the kon (in general, a measure of how fast the partners come together) came out at 5.65e+06 M⁻¹ s⁻¹. In assay [5], this molecule came in with an EC50 of 0.037 nM.

B3: TIGIT-005-H2L1d (antibody, V domains shown)
VH: EVQLVQSGAEVKKPGASVKVSCKASGYAFTNYLIEWVRQAPGQRLEWMGVINPGSGGTNYKEKFKGRVTITADKSSSTAYMELSSLRSEDTAVYYCARGEYFFFDYWGQGTTVTVSS
VL: B2 VL with N28H, R30S, T31N, Q38H, M47L, Y91H, T93N, W96H
notes: Humanized anti-TIGIT antibody with NG-site mutation in VL
B3: the EC50 in assay [2] was determined as 0.631 nM. The molecule further registered an IC50 in assay [3] of 0.15 nM. In assay [4], this molecule returned a Kd of 0.0896 nM, a koff of 0.000361 s⁻¹ and a kon of 4.03e+06 M⁻¹ s⁻¹. The same molecule registered an EC50 in assay [5] of 0.0311 nM.

B4: TIGIT-006-H5L3 (antibody, V domains shown)
VH: B2 VH with I29M, S33Y, N56R, L98G, F100Y, V107M, D108Y, Y109D
VL: DIVMTQSPDSLAVSLGERATINCRASQGVSTTIAWYQQKPGQSPKLLIYSASYRYTGVPRFSGSGSGTDFTLTISSLQAEDVAVYYCQQYYSSPFTFGGGTKVEIK
notes: Humanized anti-TIGIT antibody
For B4, the response in assay [2] was half-maximal at 0.922 nM (EC50). This molecule also displayed an IC50 in assay [3] of 0.171 nM. In assay [4], this molecule showed a Kd of 0.0639 nM, a koff of 0.00016 s⁻¹ and a kon of 2.51e+06 M⁻¹ s⁻¹. In addition, in assay [5], the EC50 was 0.0319 nM.

B5: PVRIG-A50 (Fc fusion)
chain: EVQLVESGGGLVQPGGSLRLSCAASGFTFSYYDMSWVRQAPGKGLEWVSTINSNGGRTSYVDSVKGRFTISRDNTKNTLYLQMNSLKPEDTAVYYCVEGDPHNFGLENLSLRDFGSWGQGTQVTVSS
notes: heavy chain antibody VHH-hinge-CH2-CH3, human IgG1 constant part; also called PVRIG-50; not shown: human IgG1 hinge-CH2-CH3
Turning to B5, in assay [1], the “% AUC to COM701-hIgG4” value turned out to be 104%, the “% AUC to SRF813-hIgG1” value is 81%, the “% IC50 to COM701-hIgG4” value stood at 99.1% and the “% IC50 to SRF813-hIgG1” value is 91.8%.

B6: TIGIT-070-H1L1 (antibody, V domains shown)
VH: EVQLVQSGAEVKKPGASVKVSCKASGYTFTNYYMHWVRQAPGQRLEWMGRIDPDSGGSKYNEKFKSRVTITVDKSASTAYMELSSLRSEDTAVYYCAREGHYGFYSDYWGQGTTVTVSS
VL: DIQMTQSPSSLSASVGDRVTITCRVSENIYSYLAWYQQKPGKSPKLLIYNAKTLAEGVPSRFSGSGSGTDFTLTISSLQPEDFATYYCQHHYGNPLTFGPGTKVDIK
notes: Humanized anti-TIGIT antibody
B6: the EC50 in assay [2] is 1.05 nM. The molecule further returned an IC50 in assay [3] of 0.212 nM. In assay [4], this molecule had a Kd of 0.0583 nM, a koff of 0.000116 s⁻¹ and a kon of 1.98e+06 M⁻¹ s⁻¹. In assay [5], this molecule yielded an EC50 of 0.0284 nM.

B7: PVRIG-A105 (Fc fusion)
chain: EVQLVESGGGLVQAGGSLRLSCAASGRTFDRHTMTWFRQAPGKEREFVATASRIPGDTYYSHSVKGRFTISRDNAKNTVYLQLNNLKPEDTAVYYCAATSAYCSEVDCYEKGSWYDNWGQGIQVTVSS
notes: as for B1
As to B7, in assay [1], the “% AUC to COM701-hIgG4” value was found to be 115%, the “% AUC to SRF813-hIgG1” value is 84.1%, the “% IC50 to COM701-hIgG4” value was 99.7% and the “% IC50 to SRF813-hIgG1” value is 97.7%.
